Key:
[1] = substrate: pNPB; test: Proxy for plastic degradation [Relative activity]
[2] = substrate: pNPB; test: Proxy for plastic degradation [kcat/Km (catalytic efficiency)] (µM⁻¹s⁻¹); details: pH 8
[3] = substrate: pNPB; test: Proxy for plastic degradation [p-nitrophenol (pNP) release] (% relative activity); details: pH 8

B1: unnamed (protein)
chain: MPPHAARPGPAQNRRGRAMAVITPRRERSSLLSRALRFTAAAATALVTAVSLAAPAHAANPYERGPNPTDALLEARSGPFSVSEERASRFGADGFGGGTIYYPRENNTYGAVAISPGYTGTQASVAWLGERIASHGFVVITIDTNTTLDQPDSRARQLNAALDYMINDASSAVRSRIDSSRLAVMGHSMGGGGTLRLASQRPDLKAAIPLTPWHLNKNWSSVRVPTLIIGADLDTIAPVLTHARPFYNSLPTSISKAYLELDGATHFAPNIPNKIIGKYSVAWLKRFVDNDTRYTQFLCPGPRDGLFGEVEEYRSTCPF
In the case of B1, the “Proxy for plastic degradation” value ([1]; pH 5) is reported as 35%, the “Proxy for plastic degradation” value ([1]; pH 6) is reported as 60% and the “Proxy for plastic degradation” value ([1]; pH 6.8) is reported as 75%. For the same protein, the “Proxy for plastic degradation” value ([1]; pH 7.5) was 90%, the “Proxy for plastic degradation” value ([1]; pH 9) was 75% and the “Proxy for plastic degradation” value [2] was 1.35. The “Proxy for plastic degradation” value ([3]; 0 h) was 100, the “Proxy for plastic degradation” value ([3]; 25 °C) was 31 and the “Proxy for plastic degradation” value ([3]; 30 °C) was 37.5. For the same protein, the “Proxy for plastic degradation” value ([3]; 37 °C) was 45, the “Proxy for plastic degradation” value ([3]; 40 °C) was 70.5 and the “Proxy for plastic degradation” value ([3]; 45 °C) was 75. The “Proxy for plastic degradation” value ([3]; 50 °C) was 95.5, the “Proxy for plastic degradation” value ([3]; 55 °C) was 100 and the “Proxy for plastic degradation” value ([3]; 60 °C) was 93.5. The “Proxy for plastic degradation” value ([3]; 70 °C) was 74, the “Proxy for plastic degradation” value ([3]; 80 °C) was 67.5 and the “Proxy for plastic degradation” value ([3]; 15 h) was 98. For the same protein, the “Proxy for plastic degradation” value ([3]; 30 h) was 50 and the “Proxy for plastic degradation” value ([3]; 40 h) was 40.

B2: unnamed (protein)
chain: MAVMTPRRERSSLLSRALQVTAAAATALVTAVSLAAPAHAANPYERGPNPTDALLEASSGPFSVSEENVSRLSASGFGGGTIYYPRENNTYGAVAISPGYTGTEASIAWLGERIASHGFVVITIDTITTLDQPDSRAEQLNAALNHMINRASSTVRSRIDSSRLAVMGHSMGGGGTLRLASQRPDLKAAIPLTPWHLNKNWSSVTVPTLIIGADLDTIAPVATHAKPFYNSLPSSISKAYLELDGATHFAPNIPNKIIGKYSVAWLKRFVDNDTRYTQFLCPGPRDGLFGEVEEYRSTCPF
With B2 the “Proxy for plastic degradation” value ([1]; pH 5) was 30%, the “Proxy for plastic degradation” value ([1]; pH 6) was 59% and the “Proxy for plastic degradation” value ([1]; pH 6.8) was 75%. The “Proxy for plastic degradation” value ([1]; pH 7.5) was 92%, the “Proxy for plastic degradation” value ([1]; pH 8) was 100% and the “Proxy for plastic degradation” value ([1]; pH 8, 25 °C) was 29%. For the same protein, the “Proxy for plastic degradation” value ([1]; pH 8, 30 °C) was 35%, the “Proxy for plastic degradation” value ([1]; pH 8, 37 °C) was 50% and the “Proxy for plastic degradation” value ([1]; pH 8, 40 °C) was 69%. For the same protein, the “Proxy for plastic degradation” value ([1]; pH 8, 45 °C) was 80%, the “Proxy for plastic degradation” value ([1]; pH 8, 50 °C) was 93% and the “Proxy for plastic degradation” value ([1]; pH 8, 55 °C) was 100%. The “Proxy for plastic degradation” value ([1]; pH 8, 60 °C) was 92%, the “Proxy for plastic degradation” value ([1]; pH 8, 70 °C) was 78% and the “Proxy for plastic degradation” value ([1]; pH 8, 80 °C) was 65%. For the same protein, the “Proxy for plastic degradation” value ([1]; pH 9) was 75%, the “Proxy for plastic degradation” value [2] was 2.84 and the “Proxy for plastic degradation” value ([3]; 25 °C) was 29. The “Proxy for plastic degradation” value ([3]; 30 °C) was 35.5, the “Proxy for plastic degradation” value ([3]; 37 °C) was 51 and the “Proxy for plastic degradation” value ([3]; 40 °C) was 68.5. The “Proxy for plastic degradation” value ([3]; 45 °C) was 80.5, the “Proxy for plastic degradation” value ([3]; 50 °C) was 93.5 and the “Proxy for plastic degradation” value ([3]; 55 °C) was 100. The “Proxy for plastic degradation” value ([3]; 60 °C) was 91.5, the “Proxy for plastic degradation” value ([3]; 70 °C) was 79 and the “Proxy for plastic degradation” value ([3]; 80 °C) was 67. The “Proxy for plastic degradation” value ([3]; 15 h) was 93, the “Proxy for plastic degradation” value ([3]; 30 h) was 47 and the “Proxy for plastic degradation” value ([3]; 40 h) was 38.
